Measured values reported in publication PMC12292926, “PELP1 coordinates the modular assembly and enzymatic activity of the rixosome complex” (Science Advances, 2025).
Blank lines part the entries; values can stand above or below the molecule they belong to.

How the values were obtained:
[1] = biological target: recombinant human histone octamer (human) (UniProt P0C0S8); experiment: SEC; histone chaperone assay: MBP-PELP1 variant and histone octamer mixed at 1:1 or 2:1 in >1.2 M NaCl, dialysed stepwise to 0.3 M NaCl, 10 mM Hepes pH 7.5, 4°C; S200 10/300 gel filtration in the low-salt buffer; SDS-PAGE of fractions
[2] = biological target: T1, MBP-SENP3^(311–574 C532S), fixed-arm MBP fusion of the SENP3 catalytic domain (human, UniProt Q9H4L4 311-574, C532S); experiment: crystal structure; MBP-SENP3 (311-574, C532S) with 1.5x molar excess of sPELP1 peptide; sitting drop, 0.085 to 0.1 M Hepes pH 7.5, 17 to 20% PEG8000, 4°C; 2.93 Å; details: both partners purified
T1 construct: human SENP3 catalytic domain with the three-helix bundle, Glu311-Val574, catalytic-dead C532S; In the PDB model MBP residues are labeled 1 to 370 and SENP3 residues 1311 to 1574; also called MBP(wt)-SENP3; pMALX(wt)-SENP3 (Glu311-Val574/C532S); source: E. coli Rosetta2 (DE3), purified (amylose resin, Superdex200 SEC); not shown: MBP (fixed-arm fusion, pMALX(wt)), N-terminal, kept

[3] = biological target: T2, exogenous rixosome subcomplex (PELP1, TEX10, WDR18, and SENP3) purified by GFP-TEX10 wild type (human, UniProt Q9NXF1 1-929; Q8IZL8 1-1130; Q9BV38 1-432; Q9H4L4 1-574); experiment: pull-down; GFP-TEX10 rixosome subcomplexes affinity purified from HEK293FT and kept on anti-GFP Sepharose (ATP and low-salt washes); incubated with recombinant ncPRC1.4 (0.177 mg/ml) in 0.2 ml low-salt buffer (50 mM Hepes pH 7.5, 200 mM NaCl, 5 mM MgCl2, 10% glycerol), 1 hour, 4°C; Western blot; details: both partners purified
T2 construct: human TEX10, wild type, bait of the subcomplex; human PELP1, exogenous; human WDR18, exogenous; human SENP3, exogenous; copy numbers in this preparation are not measured; also called immobilized TEX10 rixosome subcomplexes; TEX10 subcomplexes; not shown: GFP, N-terminal, kept; copies: + + +

[4] = biological target: T3, N-terminal 6× His-tagged human SENP3 protease domain (302 to 574aa) (human, UniProt Q9H4L4 302-574); experiment: SEC; purified components mixed at equimolar amounts (20 to 80 μM), 4°C for at least 30 min; S200 10/300 analytical column; SDS-PAGE of fractions; details: both partners purified
T3 construct: E. coli codon-optimized gene (Genscript) in pET11a; source: E. coli, purified (His60 Ni resin, S200 gel filtration)
T3 sequence (Q9H4L4 302-574): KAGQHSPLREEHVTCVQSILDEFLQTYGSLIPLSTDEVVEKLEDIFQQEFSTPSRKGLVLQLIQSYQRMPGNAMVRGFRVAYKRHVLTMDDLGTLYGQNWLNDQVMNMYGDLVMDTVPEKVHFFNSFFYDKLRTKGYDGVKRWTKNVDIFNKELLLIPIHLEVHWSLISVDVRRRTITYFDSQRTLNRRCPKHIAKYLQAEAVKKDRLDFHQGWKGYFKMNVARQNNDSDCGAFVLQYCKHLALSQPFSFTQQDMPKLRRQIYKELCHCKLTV

T2 sequence (Q9NXF1 whole entry, chain 1 of 4): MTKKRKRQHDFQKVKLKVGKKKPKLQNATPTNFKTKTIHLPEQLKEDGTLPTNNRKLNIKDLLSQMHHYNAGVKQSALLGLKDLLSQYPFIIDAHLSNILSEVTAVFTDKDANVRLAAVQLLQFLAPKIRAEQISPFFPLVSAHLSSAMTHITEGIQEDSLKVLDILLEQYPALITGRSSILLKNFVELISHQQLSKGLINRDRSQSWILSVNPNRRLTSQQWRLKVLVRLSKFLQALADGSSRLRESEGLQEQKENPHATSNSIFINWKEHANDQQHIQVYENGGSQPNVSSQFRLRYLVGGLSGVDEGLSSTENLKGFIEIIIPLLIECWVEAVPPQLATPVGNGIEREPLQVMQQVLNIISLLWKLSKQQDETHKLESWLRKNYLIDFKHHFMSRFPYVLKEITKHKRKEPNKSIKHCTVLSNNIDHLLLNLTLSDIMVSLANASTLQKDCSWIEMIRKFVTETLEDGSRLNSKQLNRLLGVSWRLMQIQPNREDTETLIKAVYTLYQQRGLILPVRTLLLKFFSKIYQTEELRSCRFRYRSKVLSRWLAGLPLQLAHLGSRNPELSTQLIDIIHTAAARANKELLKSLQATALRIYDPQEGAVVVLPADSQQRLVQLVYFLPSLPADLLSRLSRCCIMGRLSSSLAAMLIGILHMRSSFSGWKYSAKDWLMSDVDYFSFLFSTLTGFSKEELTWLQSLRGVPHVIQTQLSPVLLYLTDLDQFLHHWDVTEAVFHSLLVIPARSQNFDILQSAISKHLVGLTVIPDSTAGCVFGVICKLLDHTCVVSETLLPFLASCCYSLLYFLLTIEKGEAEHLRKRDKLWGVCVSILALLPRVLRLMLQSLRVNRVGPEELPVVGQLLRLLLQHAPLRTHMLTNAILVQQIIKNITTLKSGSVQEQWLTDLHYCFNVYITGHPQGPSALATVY
T2 sequence (Q8IZL8 whole entry, chain 2 of 4): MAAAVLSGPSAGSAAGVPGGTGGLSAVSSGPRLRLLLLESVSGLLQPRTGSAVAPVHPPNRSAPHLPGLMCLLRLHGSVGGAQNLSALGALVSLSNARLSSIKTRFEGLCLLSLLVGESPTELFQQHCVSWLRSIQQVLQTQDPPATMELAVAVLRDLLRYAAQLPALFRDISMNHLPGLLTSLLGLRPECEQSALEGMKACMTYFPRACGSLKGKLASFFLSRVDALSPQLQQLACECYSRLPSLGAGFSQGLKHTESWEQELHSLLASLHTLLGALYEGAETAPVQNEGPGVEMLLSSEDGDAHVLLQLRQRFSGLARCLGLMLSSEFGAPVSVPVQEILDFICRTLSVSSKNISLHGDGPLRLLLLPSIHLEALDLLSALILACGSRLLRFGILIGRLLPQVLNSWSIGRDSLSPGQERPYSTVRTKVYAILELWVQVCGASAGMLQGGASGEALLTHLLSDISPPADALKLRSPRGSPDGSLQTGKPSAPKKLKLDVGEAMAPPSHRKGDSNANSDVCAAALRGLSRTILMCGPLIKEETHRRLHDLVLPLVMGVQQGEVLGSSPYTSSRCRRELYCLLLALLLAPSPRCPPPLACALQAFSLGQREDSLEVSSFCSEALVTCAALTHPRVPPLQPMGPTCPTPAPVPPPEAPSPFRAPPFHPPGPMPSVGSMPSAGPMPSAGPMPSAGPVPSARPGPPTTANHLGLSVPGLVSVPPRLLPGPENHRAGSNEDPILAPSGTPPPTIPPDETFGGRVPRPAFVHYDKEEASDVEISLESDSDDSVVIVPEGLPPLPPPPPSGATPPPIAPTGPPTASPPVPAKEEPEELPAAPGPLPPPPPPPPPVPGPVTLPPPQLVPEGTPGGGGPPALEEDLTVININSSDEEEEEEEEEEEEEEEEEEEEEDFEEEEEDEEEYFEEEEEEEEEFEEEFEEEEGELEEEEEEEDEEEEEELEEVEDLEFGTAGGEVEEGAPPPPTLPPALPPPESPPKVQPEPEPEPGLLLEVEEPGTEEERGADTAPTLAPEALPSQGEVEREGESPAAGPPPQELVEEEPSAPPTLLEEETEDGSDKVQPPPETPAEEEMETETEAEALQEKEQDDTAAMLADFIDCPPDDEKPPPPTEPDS
T2 sequence (Q9BV38 whole entry, chain 3 of 4): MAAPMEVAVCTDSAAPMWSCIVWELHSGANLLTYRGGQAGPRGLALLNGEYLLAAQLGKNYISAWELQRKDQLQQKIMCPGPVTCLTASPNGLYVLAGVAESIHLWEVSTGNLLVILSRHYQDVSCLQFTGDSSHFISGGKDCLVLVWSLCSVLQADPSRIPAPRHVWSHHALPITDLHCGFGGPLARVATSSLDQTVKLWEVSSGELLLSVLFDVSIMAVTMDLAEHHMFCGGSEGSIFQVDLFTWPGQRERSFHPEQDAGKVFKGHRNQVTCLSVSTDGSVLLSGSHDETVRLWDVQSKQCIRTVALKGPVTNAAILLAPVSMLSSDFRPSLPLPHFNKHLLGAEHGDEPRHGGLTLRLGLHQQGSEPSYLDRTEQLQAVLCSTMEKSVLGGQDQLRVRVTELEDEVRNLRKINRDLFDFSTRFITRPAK
T2 sequence (Q9H4L4 whole entry, chain 4 of 4): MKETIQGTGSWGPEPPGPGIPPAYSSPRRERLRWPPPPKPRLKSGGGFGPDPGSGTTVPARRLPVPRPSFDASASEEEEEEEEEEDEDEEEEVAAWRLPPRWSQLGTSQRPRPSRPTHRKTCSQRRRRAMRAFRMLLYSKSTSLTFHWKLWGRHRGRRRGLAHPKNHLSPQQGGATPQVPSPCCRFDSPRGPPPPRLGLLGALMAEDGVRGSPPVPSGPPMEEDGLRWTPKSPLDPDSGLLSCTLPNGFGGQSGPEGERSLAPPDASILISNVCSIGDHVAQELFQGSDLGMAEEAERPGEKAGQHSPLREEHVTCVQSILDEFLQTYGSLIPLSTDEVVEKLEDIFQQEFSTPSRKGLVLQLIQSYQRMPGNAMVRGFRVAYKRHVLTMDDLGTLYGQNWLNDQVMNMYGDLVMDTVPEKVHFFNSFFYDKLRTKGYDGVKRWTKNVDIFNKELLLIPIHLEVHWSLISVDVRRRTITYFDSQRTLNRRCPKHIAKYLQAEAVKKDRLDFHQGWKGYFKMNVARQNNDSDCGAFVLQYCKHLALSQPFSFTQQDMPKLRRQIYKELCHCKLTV
T1 sequence (Q9H4L4 311-574 C532S): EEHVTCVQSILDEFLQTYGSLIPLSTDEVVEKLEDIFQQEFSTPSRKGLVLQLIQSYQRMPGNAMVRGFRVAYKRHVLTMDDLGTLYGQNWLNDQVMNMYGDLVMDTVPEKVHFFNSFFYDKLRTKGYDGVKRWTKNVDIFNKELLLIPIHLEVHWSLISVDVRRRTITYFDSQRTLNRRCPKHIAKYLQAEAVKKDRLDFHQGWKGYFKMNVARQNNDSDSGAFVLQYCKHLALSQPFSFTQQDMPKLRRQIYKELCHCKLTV

B1: sPELP1 peptide (PELP1 residues Ala764-Glu781) (peptide, UniProt Q8IZL8 764-781, looked up)
peptide: AFVHYDKEEASDVEISLE
notes: also called short (s) PELP1; PELP1^SLiM peptide (764 to 781aa); source: synthetic peptide (GenScript)
binding result [2]: binds

B2: recombinant human noncanonical PRC1.4 complex (RING1B-BMI1-RYBP) (complex)
chain 1: MSQAVQTNGTQPLSKTWELSLYELQRTPQEAITDGLEIVVSPRSLHSELMCPICLDMLKNTMTTKECLHRFCADCIITALRSGNKECPTCRKKLVSKRSLRPDPNFDALISKIYPSRDEYEAHQERVLARINKHNNQQALSHSIEEGLKIQAMNRLQRGKKQQIENGSGAEDNGDSSHCSNASTHSNQEAGPSNKRTKTSDDSGLELDNNNAAMAIDPVMDGASEIELVFRPHPTLMEKDDSAQTRYIKTSGNATVDHLSKYLAVRLALEELRSKGESNQMNLDTASEKQYTIYIATASGQFTVLNGSFSLELVSEKYWKVNKPMELYYAPTKEHK
chain 2: MHRTTRIKITELNPHLMCVLCGGYFIDATTIIECLHSFCKTCIVRYLETSKYCPICDVQVHKTRPLLNIRSDKTLQDIVYKLVPGLFKNEMKRRRDFYAAHPSADAANGSNEDRGEVADEDKRIITDDEIISLSIEFFDQNRLDRKVNKDKEKSKEEVNDKRYLRCPAAMTVMHLRKFLRSKMDIPNTFQIDVMYEEEPLKDYYTLMDIAYIYTWRRNGPLPLKYRVRPTCKRMKISHQRDGLTNAGELESDSGSDKANSPAGGIPSTSSCLPSPSTPVQSPHPQFPHISSTMNGTSNSPSGNHQSSFANRPRKSSVNGSSATSSG
chain 3: MTMGDKKSPTRPKRQAKPAADEGFWDCSVCTFRNSAEAFKCSICDVRKGTSTRKPRINSQLVAQQVAQQYATPPPPKKEKKEKVEKQDKEKPEKDKEISPSVTKKNTNKKTKPKSDILKDPPSEANSIQSANATTKTSETNHTSRPRLKNVDRSTAQQLAVTVGNVTVIITDFKEKTRSSSTSSSTVTSSAGSEQQNQSSSGSESTDKGSSRSSTPKGDMSAVNDESF
notes: human RING1B, full length; human BMI1, full length; human RYBP, full length; also called ncPRC1.4; not shown: SUMO-10xHis, N-terminal, cleaved; copies: + +
binding result [3]: binds

B3: 6×-HIS-MBP-PELP1 761 to 796aa (SENP3 binding motif peptide) (domain or fragment, human, UniProt Q8IZL8 761-796, looked up)
chain: PRPAFVHYDKEEASDVEISLESDSDDSVVIVPEGLP
notes: human PELP1 IDR, residues 761 to 796 with the SLiM; legends and the purification paragraph print 761 to 796aa; also called MBP-PELP1^SLiM; PELP1^SLiM-containing peptide 761 to 796aa; source: E. coli, purified (His60 Ni resin, S200 gel filtration); not shown: MBP, N-terminal, kept
binding result [4]: binds

Results, then the molecule that gave them:

stoichiometry N (copies per histone octamer) [1]: 2
Molecule: MBP-PELP1^800–1130 (from UniProt Q8IZL8 800-1130) (domain or fragment)

stoichiometry N (copies per histone octamer) [1]: 2
Molecule: MBP-PELP1^887–966 (from UniProt Q8IZL8 887-966) (domain or fragment)
